Measured values as given in US20080311122A1, “Antagonists of Hmgb1 and/or Rage and Methods of Use Thereof” (Medimmune, LLC, priority 2005, published 2008).
“Also recorded” adds a separate entry of the source.

Legend:
[1] = tested on: HMG1 (recombinant, native; immobilized, soluble); test: Direct and sandwich (capture) ELISA comparing forms of HMG1; assay type: binding; settings: for binding to immobilized versus soluble HMG1: two ELISA formats, rHMG1; for binding to recombinant HMG1 versus native HMG1: capture ELISA
Procedure: Direct ELISA (immobilized HMG1): Individual wells of a 96-well immunoplate (EIA/RIA plate, High binding, Costar) were coated with HMGB-1 at 5 μg/ml in PBS at 4° C. overnight. The plate was then blocked with 4% milk powder dissolved in PBS at 37° C. for 1 hour. The blocking solution was removed and replaced with human anti-HMG1 antibodies at various concentrations (see FIG. 4A). The plate was then washed (ELX-405 Plate washer, BIO-TEK) and secondary antibody (anti-human IgG-HRP, PIERCE) was added at a final concentration of 1:125,000 at 37° C. for 1 hour. HRP activity was detected with Sureblue HRP substrate (KPL). Plates were read at 450 nm using a Kinetic Microplate Reader (Molecular Devices).
Sandwich ELISA (soluble HMG1): Immunoplates (EIA/RIA plate, High binding, Costar) were coated with anti human IgG Fc at 10 μg/ml in PBS (pH 7.2) and incubated at 4° C. overnight. The coating reagent was removed and the plates were rinsed briefly with PBS. The plates were then blocked with 4% milk for 1 hour at 37° C. and rinsed with PBS. The anti-HMG1 antibodies were diluted in 4% milk. For serial dilutions, the antibodies were used at a starting concentration of 20 μg/ml. The diluted anti-HMG1 antibodies were then added into plate and incubated for 1 hr at 37° C. The plate was then washed 10 times with PBST (PBS/0.1% tween 20) and incubate with antigen (HMGB1, 2 μg/ml; or 0.7 μg/ml for native HMGB1) in 4% milk and incubated at 37° C. for 1 h. The plate was then wash 10 times and incubated with mouse anti-HMGB1, 1 μg/ml in 4% milk at 37° C. for 1 h. The plate was washed 10 times and incubated with anti-mouse IgG-HRP at 1:1000 at 37° C. for 1 h. The plate was then washed and developed. HRP activity was detected with Sureblue HRP substrate (KPL). Plates were read at 450 nm using a Kinetic Microplate Reader (Molecular Devices).

[2] = target: T1, recombinant HMG1 binding to RAGE-Fc (Homo sapiens, UniProt P09429); test: HMG1 binding to RAGE-Ig by ELISA; settings: at the concentrations tested
T1 construct: made in house; host or cells: E. coli (HMG1)
T1 sequence (P09429 1-215): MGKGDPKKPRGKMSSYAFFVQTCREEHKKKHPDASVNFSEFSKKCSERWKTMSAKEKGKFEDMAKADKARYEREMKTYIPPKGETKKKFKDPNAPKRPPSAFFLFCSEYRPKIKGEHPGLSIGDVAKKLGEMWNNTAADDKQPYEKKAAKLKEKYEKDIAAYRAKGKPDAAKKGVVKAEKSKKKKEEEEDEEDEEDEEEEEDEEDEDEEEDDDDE
Procedure: HMG1 binding to RAGE-Ig by ELISA: 50 μl/well of RAGE-Fc fusion protein at 5 μg/ml in PBS was added to each well of an ELISA plate and incubated overnight at 4° C. The plate was then blocked with 200 μl of 5% milk at 37° C. for 1 hr and washed 3× with PBS/Tween. 50 μl/well of diluted HMGB1 solution. For dose curves, HMGB1 concentrations started at 4 ug/ml in PBS. For antibody blocking the HMGB1 was preincubated in another plate with human anti-HMG1 antibodies or buffer, then transferred to the RAGE-coated plate. The plates were then incubated at room temperature for 2 hours and washed 3×. To detect any HMG1 bound to the immobilized RAGE-Fc a mixture of biotinylated mouse anti-HMG1 mAbs (10D4, 4H11, 3E10 and 5C12) each at 1 ug/ml, total Ab: 4 ug/ml, were added to each well and the plate was incubated for 1 hour at room temperature. The plate was then washed and Strepavidin-HPR was added to each well and incubated 15 min. The plate was then washed 3× and blotted dry. 100 μl of TMB developing agent was added and the plate read at 650 nm. Values were calculated as percent of inhibition with HMG1 alone equal to 0% inhibition. The data in FIG. 9 and summarized in Table 1 represent the average of two separate experiments.

[3] = Isoelectric focusing gel electrophoresis; assay type: physicochemical
Procedure: Isoelectric Focusing Gel Electrophoresis: Isoelectric points were determined using a Pharmacia Biotech Multiphor 2 electrophoresis system with a multi temp 3 refrigerated bath recirculation unit and an EPS 3501 XL power supply. Pre-cast ampholine gels (Amersham Biosciences, pI range 2.5-10) were loaded with 5 μg of protein. Broad range pI marker standards (Amersham, pI range 3-10, 8 μL) were used to determine relative pI for the Mabs. Electrophoresis was performed at 1500 V, 50 mA for 105 minutes. The gel was fixed using a Sigma fixing solution (5×) diluted with purified water to 1×. Staining was performed overnight at room temperature using Simply Blue stain (Invitrogen). Destaining was carried out with a solution that consisted of 25% ethanol, 8% acetic acid and 67% purified water. Isoelectric points were determined using a Bio-Rad Densitometer relative to calibration curves of the standards.

HMG2 = target: T2, HMG2 (Bos taurus, UniProt P40673); test: Binding to HMG1 vs. HMG2 ELISA; parameters: species or system calf; settings: immobilized antigen
T2 construct: from tissue; host or cells: calf thymus (as read from the sentence)
T2 sequence (P40673 1-209): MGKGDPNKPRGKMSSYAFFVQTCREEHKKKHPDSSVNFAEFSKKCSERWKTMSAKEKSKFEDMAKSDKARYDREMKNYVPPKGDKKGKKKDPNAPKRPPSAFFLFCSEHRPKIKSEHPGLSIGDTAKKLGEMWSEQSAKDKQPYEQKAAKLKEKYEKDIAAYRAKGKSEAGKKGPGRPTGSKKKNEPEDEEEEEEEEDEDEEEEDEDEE
Procedure: Binding to HMG1 vs. HMG2: Ultra high-binding ELISA plates (ThermoLab systems, #3855) were coated with either 5 ug/mL of Calf thymus HMGB1 or HMBG2 diluted in 10 mM Phosphate buffered saline (PBS), pH 7.2 and incubate overnight at 4 degrees. The plates were washed twice with Ca and Mg free PBS and 100 microliters of anti-HMGB1 antibody diluted in 10 mM PBS, pH 7.2+1% bovine serum albumin (BSA) to a final concentration of 10 ug/mL was added to each well and the plates were incubated 1 hour at room temperature. The wells were washed three times with 100 μl of PBS, pH 7.2. HRP labeled goat-anti-human IgG Kappa-chain (KPL, #14-10-10) and goat-anti-human IgG Lambda-chain (KPL, #14-10-11) were diluted in 10 mM PBS+1% BSA 1:1000 and 100 μl were added to each well and incubated for 1 hour at room temperature. The wells were then washed three times with 100 μl of PBS, pH 7.2. OPD substrate (Pierce chemical company, #34006) was prepared following the manufacturers instructions and 100 μl of prepared substrate was added to each well and the plates incubated at room temperature in the dark for 20-30 minutes. The reaction was stopped with the addition of 100 μl of 2M H2SO4, and the plates read on a plate reader at a wavelength of 490 nm.

| Molecule | binding to immobilized versus soluble HMG1 [1] | block of recombinant HMG1 binding to RAGE [2] | PI [3] | relative binding to HMG1 and HMG2 (HMG2) | binding to recombinant HMG1 versus native HMG1 [1] |
| --- | --- | --- | --- | --- | --- |
| G20: human anti-HMG1 antibody; VL/VH aa SEQ ID NO: 46/48 (antibody, listed as Homo sapiens, V domains shown) VH: EVQLLESGGGLVQPGGSLRLSCAASGFTFSWYDMFWVRQAPGKGLEWVSWISPSGGYTKYADSVKGRFTISRDNSKNTLYLQMNSLRAEDTAMYYCARSGLDYYDSSGYLDAFDIWGQGTMVTVSS VL: AQDIQMTQSPSSVSASVGDRVTITCRASQDVSIWLAWYQQKPGKAPKLLIFGASRLQSGVPSRFSGSRSGADFTLTIDSVQPEDFASYYCQQADSFPLTFGGGTKVEIK | bind better to soluble rHMG1 | do not at the concentrations tested | 7.8 | specific for HMG1 |  |
| S16: human anti-HMG1 antibody, ATCC PTA-6259; VL/VH aa SEQ ID NO: 13/15 (antibody, listed as Homo sapiens, V domains shown) VH: EVQLLESGGGLVQPGGSLRLSCAASGFTFSWYSMLWVRQAPGKGLEWVSYISPSGGFTNYADSVKGRFTISRDNSKNTLYLQMNSLRAEDTAVYYCARWDYNSGWYYDHWGQGTLVTVSS VL: AQDIQMTQSPDTLSLSPGERATLSCRASQSVNSRNLAWYQQKPGQAPRLLIYGASTRATGIPDRFSGSVSGTEFTLTISSLQPDDFATYYCQQYNSYFTFGQGTKLEIK | bound slightly better to immobilized rHMG1 | significant ability to block the binding of HMG1 to RAGE | 8.11 | some binding to both HMG1 and HMG2 | binds both recombinant and native HMG1; also recorded: binding all forms of HMG1; also recorded: bind both forms of HMG1 |
| G9: human anti-HMG1 antibody; VL/VH aa SEQ ID NO: 34/36 (antibody, listed as Homo sapiens, V domains shown) VH: EVQLLESGGGLVQPGGSLRLSCAASGFTFSSYDMFWVRQAPGKGLEWVSRISPSGGYTYYADSVKGRFTISRDNSKNTLYLQMNSLRAEDTAVYYCARLRYFDSRGYAFDIWGQGTMVTVSS VL: AQDIQMTQSPGTLSLSPGERATLSCRASQSVRSSYLAWYQQKPGQAPRLLIYGASTRATGIPDRFSGSGSGTDFTLTISRLEPEDFAVYYCQQYGTSRWTFGQGTKVEIK | little difference in binding to immobilized or soluble HMG1 | did not inhibit RAGE binding; also recorded: do not at the concentrations tested | 9.01 | specific for HMG1 |  |
| E11: human anti-HMG1 antibody, recognizes HMG1 A-Box; VL/VH aa SEQ ID NO: 24/26 (antibody, listed as Homo sapiens, V domains shown) VH: EVQLLESGGGLVQPGGSLRLSCAASGFTFSRYQMNWVRQAPGKGLEWVSSISPSGGHTHYADSVKGRFTISRDNSKNTLYLQMNSLRAEDTAVYYCAKDGRQGKISTVDHWGQGTLVTVSS VL: AQDIQMTQSPGTLSLSPGERATLSCRASQSVRSNFLAWYQQKPGQAPRLLIYGASRRASGIPDRFSGSGFGADFTLSISRLEPEDFAVYYCQQYGSSPNTFGQGSRVEIK | bind better to soluble rHMG1; also recorded: higher affinity for soluble HMG1 |  | 8.92 | some binding to HMG2; also recorded: bind better to HMG2 than to HMG1; also recorded: higher binding affinity for HMG2 |  |
| S12: human anti-HMG1 antibody; VL/VH aa SEQ ID NO: 62/64 (antibody, listed as Homo sapiens, V domains shown) VH: EVQLLESGGGLVQPGGSLRLSCAASGFTFSKYIMHWVRQAPGKGLEWVSGIVPSGGLTEYADSVKGRFTISRDNSKNTLYLQMNSLRAEDTATYYCAKEIFGQFDYWGQGTLVTVSS VL: AQSALTQPPSVSAAPRQRVTISCSGSTSNIGNNAVTWYQYFPGKAPKLLIYSDNQRPSGVPDRFSGSKSGTSASLAITGLQAEDEADYYCQSYDRGLSVVFGGGTKLTVL | bound slightly better to immobilized rHMG1 | do not at the concentrations tested | 8.73 | some binding to both HMG1 and HMG2 |  |
| S10: human anti-HMG1 antibody; VL/VH aa SEQ ID NO: 58/60 (antibody, listed as Homo sapiens, V domains shown) VH: EVQLLESGGGLVQPGGSLRLSCAASGFTFSWYDMWWVRQAPGKGLEWVSWIVPSGGITAYADSVKGRFTISRDNSKNTLYLQMNSLRAEDTATYYCARGNYGPSPFDYWGQGTLVTVSS VL: AQDIQMTQSPGTLSLSPGERATLSCRATQSVRKNFLAWYQQKPGQAPRLLIYDASSRATGIPDRFSGSGSGTDFTLTISRLEPEDFAVYYCQQYGNSPIIFGQGTRLEIK | bound slightly better to immobilized rHMG1 | significant ability to block the binding of HMG1 to RAGE | 8.76 | specific for HMG1 | better binding to rHMG1; also recorded: discriminating between recombinant and the various native forms; also recorded: bind better to recombinant HMG1 than to native nuclear HMG1 |
